From publication PMC12946505, “RrMYB2 Regulates Drought Stress via RrJMJ12‐Dependent Epigenetic Modification in Rosa rugosa” come the findings set out here.

This data set concerns the target RrJMJ12-C (Rosa rugosa, UniProt A0A2P6P5A5 1371-1493). In words: EMSA; unlabeled cold probe control; EMSA/Gel-Shift Kit (Beyotime) binding buffer, 30 min at 24 C; salt and pH not stated. Conditions: protein: recombinant; tags: GST (pGEX4T-1); label: biotin; blunt. (In EMSA bound probe runs differently from free probe, usually more slowly.)

Chain of RrJMJ12-C (A0A2P6P5A5 entry or part of it): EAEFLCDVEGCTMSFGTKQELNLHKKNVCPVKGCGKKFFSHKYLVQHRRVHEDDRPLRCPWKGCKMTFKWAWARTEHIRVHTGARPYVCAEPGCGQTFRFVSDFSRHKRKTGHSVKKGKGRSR

B1: Probe1 (dsDNA)
DNA 1: CTCTCTCTCTCTCTCTCTCTGTTTGCGCCAAAACA
DNA 2: TGTTTTGGCGCAAACAGAGAGAGAGAGAGAGAGAG
With B1, the binding result is “binds”.

B2: Probe5 (dsDNA)
DNA 1: TAATTAGGTATCTCTGCTCGAGTTCTTTTG
DNA 2: CAAAAGAACTCGAGCAGAGATACCTAATTA
As for B2, the binding result was “binds”.

B3: Probe2 (dsDNA)
DNA 1: TTTCTCATGAACCCTCTGCTTTCTCATCTTGGGT
DNA 2: ACCCAAGATGAGAAAGCAGAGGGTTCATGAGAAA
In the case of B3, the binding result is “binds”.

B4: Probe3 (dsDNA)
DNA 1: GTCTTATTTTTCTCTGTTTTCTTTTTTGGTATT
DNA 2: AATACCAAAAAAGAAAACAGAGAAAAATAAGAC
Turning to B4, the binding result is reported as “binds”.

B5: Probe4 (dsDNA)
DNA 1: ATGACCCCCTTTTGCTCTGCTCTGTCTTTCTAGT
DNA 2: ACTAGAAAGACAGAGCAGAGCAAAAGGGGGTCAT
Consider B5, for which the binding result is recorded as “binds”.
